To fix the notation:
T1: cynoFcγRIIb (Macaca fascicularis, UniProt A0A140HDP4)
T1 construct: extracellular region, C-terminal His- and GST-tag; also called cynomolgus monkey FcγRIIb
T1 sequence (receptor extracellular region): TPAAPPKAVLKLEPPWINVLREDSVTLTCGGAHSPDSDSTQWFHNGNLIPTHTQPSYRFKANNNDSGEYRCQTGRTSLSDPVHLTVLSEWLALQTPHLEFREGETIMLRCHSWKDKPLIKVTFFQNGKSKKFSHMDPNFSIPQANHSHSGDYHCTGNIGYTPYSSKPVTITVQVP

T2: mFcγRIIb (Mus musculus, UniProt P08101)
T2 construct: extracellular region, C-terminal His- and GST-tag; also called mouse FcγRII
T2 sequence (receptor extracellular region, looked up): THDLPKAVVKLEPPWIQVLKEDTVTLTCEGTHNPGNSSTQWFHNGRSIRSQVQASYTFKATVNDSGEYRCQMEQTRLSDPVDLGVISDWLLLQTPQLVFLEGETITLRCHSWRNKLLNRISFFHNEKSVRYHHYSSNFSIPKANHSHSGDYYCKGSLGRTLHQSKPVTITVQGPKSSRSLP

T3: human FcγRIIa (131R), His- and GST-tagged (human, UniProt P12318 34-217)
T3 construct: Expressed in HEK293T cells, purified by nickel chromatography; also called R131 FcγRIIa; not shown: 6xHis and GST tags of the pTT5 vector
T3 sequence (looked up): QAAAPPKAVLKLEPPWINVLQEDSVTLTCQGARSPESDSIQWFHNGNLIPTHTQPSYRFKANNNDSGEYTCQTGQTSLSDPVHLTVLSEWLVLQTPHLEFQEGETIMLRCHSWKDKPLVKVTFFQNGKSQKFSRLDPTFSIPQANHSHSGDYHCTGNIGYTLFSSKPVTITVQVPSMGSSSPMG

T4: human FcγRIIa (131H), His- and GST-tagged (human, UniProt P12318 34-217)
T4 construct: also called H131 FcγRIIa; HIIa; not shown: 6xHis and GST tags of the pTT5 vector
T4 sequence (looked up): T3 sequence (looked up) with R134H

T5: human FcγRIIb receptor protein (R&D Systems) (human, UniProt P31994 46-217)
T5 construct: Bought protein injected over captured antibody in Biacore; also called CD32b
T5 sequence (looked up): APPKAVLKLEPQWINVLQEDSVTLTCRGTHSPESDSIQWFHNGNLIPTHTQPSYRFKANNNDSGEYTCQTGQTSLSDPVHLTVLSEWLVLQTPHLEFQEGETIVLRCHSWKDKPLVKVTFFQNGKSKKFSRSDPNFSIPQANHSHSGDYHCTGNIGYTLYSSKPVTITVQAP

T6: mFcγRIV
T6 construct: also called mouse FcγRIV; not shown: C-terminal His and GST tags (named only on our card)
T6 chain: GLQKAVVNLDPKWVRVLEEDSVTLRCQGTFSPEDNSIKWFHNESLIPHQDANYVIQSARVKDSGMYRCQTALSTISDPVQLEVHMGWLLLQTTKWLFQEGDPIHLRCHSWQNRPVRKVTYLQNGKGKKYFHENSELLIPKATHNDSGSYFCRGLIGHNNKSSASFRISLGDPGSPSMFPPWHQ

T7: human FcγRIIb on cells (transfected HEK293T cells; primary human B cells) (human, UniProt P31994 43-310)
T7 construct: whole, on cells; also called CD32b
T7 sequence (looked up): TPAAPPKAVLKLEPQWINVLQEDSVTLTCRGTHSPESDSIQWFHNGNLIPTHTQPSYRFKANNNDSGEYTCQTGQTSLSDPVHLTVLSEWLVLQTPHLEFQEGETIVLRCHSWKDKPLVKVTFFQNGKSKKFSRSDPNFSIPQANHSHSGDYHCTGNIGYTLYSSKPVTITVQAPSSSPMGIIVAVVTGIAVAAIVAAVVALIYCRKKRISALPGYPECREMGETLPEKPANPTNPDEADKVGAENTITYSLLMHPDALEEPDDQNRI

B1: L234D/G236N/S267E (antibody, human IgG1, kappa)
heavy: EVQLVESGGGLVKPGGSLKLSCAASGYTFTSYVMHWVRQAPGKGLEWIGYINPYNDGTKYNEKFQGRVTISSDKSISTAYMELSSLRSEDTAMYYCARGTYYYGTRVFDYWGQGTLVTVSSASTKGPSVFPLAPSSKSTSGGTAALGCLVKDYFPEPVTVSWNSGALTSGVHTFPAVLQSSGLYSLSSVVTVPSSSLGTQTYICNVNHKPSNTKVDKKVEPKSCDKTHTCPPCPAPEDLNGPSVFLFPPKPKDTLMISRTPEVTCVVVDVEHEDPEVKFNWYVDGVEVHNAKTKPREEQYNSTYRVVSVLTVLHQDWLNGKEYKCKVSNKALPAPIEKTISKAKGQPREPQVYTLPPSREEMTKNQVSLTCLVKGFYPSDIAVEWESNGQPENNYKTTPPVLDSDGSFFLYSKLTVDKSRWQQGNVFSCSVMHEALHNHYTQKSLSLSPGK
light: DIVMTQSPATLSLSPGERATLSCRSSKSLQNVNGNTYLYWFQQKPGQSPQLLIYRMSNLNSGVPDRFSGSGSGTEFTLTISSLEPEDFAVYYCMQHLEYPITFGAGTKLEIKRTVAAPSVFIFPPSDEQLKSGTASVVCLLNNFYPREAKVQWKVDNALQSGNSQESVTEQDSKDSTYSLSSTLTLSKADYEKHKVYACEVTHQGLSSPVTKSFNRGEC
notes: HuAM4G7 anti-CD19 IgG1 (m1) with these Fc substitutions, EU index; copies: 2 + 2
B2: A327L (antibody, human IgG1, kappa)
heavy: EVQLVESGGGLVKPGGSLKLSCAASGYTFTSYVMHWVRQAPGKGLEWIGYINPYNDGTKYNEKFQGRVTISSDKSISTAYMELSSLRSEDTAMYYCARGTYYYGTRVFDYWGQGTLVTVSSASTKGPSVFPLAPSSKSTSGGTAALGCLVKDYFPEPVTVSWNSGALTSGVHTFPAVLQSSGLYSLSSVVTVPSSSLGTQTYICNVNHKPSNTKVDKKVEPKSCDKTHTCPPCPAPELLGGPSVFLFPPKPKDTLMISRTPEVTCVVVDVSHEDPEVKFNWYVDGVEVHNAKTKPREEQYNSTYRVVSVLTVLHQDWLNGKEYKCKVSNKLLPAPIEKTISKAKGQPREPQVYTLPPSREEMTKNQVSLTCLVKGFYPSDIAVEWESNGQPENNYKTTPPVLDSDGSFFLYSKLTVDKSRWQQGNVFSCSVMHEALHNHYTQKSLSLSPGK
light: B1 light
notes: HuAM4G7 anti-CD19 IgG1 (m1) with this Fc substitution, EU index; copies: 2 + 2
B3: G236S/G237A (antibody, human IgG1, kappa)
heavy: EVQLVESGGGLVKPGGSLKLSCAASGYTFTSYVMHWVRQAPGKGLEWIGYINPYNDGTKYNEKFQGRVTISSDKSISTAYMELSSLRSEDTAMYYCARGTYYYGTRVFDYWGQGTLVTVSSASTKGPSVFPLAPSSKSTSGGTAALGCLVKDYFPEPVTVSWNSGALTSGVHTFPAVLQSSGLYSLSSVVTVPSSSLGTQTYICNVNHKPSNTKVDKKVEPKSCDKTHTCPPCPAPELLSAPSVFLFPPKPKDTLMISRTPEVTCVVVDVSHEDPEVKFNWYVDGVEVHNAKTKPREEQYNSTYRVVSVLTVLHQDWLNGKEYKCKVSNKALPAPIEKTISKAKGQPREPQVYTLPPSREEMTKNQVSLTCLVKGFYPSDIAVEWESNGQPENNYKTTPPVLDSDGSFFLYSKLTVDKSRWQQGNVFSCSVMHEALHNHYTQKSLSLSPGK
light: B1 light
notes: as for B1
B4: G236A/G237A (antibody, human IgG1, kappa)
heavy: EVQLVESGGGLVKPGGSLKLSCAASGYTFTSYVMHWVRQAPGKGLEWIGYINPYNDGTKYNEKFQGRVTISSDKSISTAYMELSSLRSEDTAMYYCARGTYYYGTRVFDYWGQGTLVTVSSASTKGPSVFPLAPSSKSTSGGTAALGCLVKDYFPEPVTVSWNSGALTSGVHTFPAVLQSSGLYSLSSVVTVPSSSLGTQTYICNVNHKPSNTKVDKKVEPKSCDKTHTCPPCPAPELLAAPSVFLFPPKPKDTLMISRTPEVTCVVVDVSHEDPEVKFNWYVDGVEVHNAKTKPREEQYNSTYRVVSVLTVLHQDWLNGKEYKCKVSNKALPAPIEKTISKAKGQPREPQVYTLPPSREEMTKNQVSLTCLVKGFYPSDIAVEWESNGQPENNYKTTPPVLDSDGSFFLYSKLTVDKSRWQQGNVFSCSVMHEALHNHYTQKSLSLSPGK
light: B1 light
notes: as for B1
B5: V266M/S267E (antibody, human IgG1, kappa)
heavy: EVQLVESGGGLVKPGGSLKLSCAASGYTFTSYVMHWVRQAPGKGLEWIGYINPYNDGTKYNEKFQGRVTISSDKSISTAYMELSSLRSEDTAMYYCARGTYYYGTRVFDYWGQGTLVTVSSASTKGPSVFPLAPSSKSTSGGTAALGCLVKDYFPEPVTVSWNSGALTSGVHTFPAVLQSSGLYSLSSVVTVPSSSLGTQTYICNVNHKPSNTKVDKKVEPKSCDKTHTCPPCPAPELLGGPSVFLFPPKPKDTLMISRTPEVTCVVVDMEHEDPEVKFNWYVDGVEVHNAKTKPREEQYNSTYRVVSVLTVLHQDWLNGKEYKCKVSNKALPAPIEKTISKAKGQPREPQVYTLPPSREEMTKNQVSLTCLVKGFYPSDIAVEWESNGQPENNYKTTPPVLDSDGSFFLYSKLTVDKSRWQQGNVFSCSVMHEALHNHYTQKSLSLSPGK
light: B1 light
notes: as for B1
B6: anti-CD19 antibody HuAM4G7 IgG1 S267E/H268E (antibody)
heavy: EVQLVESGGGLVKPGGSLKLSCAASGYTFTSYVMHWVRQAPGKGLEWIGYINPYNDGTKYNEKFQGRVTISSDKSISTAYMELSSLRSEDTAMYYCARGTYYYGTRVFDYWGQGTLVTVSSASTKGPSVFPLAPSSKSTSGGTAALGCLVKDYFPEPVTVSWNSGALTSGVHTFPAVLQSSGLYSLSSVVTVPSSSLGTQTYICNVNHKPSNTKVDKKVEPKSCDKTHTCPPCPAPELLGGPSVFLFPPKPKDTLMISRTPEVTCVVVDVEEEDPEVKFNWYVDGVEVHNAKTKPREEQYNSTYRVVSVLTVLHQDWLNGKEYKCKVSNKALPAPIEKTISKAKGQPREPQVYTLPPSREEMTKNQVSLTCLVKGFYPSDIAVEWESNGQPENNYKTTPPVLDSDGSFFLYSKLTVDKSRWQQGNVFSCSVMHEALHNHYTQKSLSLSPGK
light: B1 light
notes: Positions in EU numbering; copies: 2 + 2
B7: S267E/A327E (antibody, human IgG1, kappa)
heavy: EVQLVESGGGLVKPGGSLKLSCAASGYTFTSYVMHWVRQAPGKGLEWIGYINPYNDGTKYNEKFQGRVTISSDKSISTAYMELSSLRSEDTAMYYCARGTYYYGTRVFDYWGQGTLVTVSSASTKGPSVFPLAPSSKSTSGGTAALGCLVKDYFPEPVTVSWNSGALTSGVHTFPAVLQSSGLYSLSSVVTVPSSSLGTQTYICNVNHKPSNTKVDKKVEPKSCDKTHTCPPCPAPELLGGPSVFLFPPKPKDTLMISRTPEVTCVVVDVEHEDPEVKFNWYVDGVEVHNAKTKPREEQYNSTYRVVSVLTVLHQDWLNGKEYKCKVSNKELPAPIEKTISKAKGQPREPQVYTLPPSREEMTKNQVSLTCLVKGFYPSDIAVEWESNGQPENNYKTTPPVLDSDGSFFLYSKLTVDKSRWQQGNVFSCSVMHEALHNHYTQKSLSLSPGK
light: B1 light
notes: as for B1

Changes are numbered by the printed parent chain. Numbers in names are those of the source.
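Wherever Fold vs WT IgG1 (off-rate) is given: fold improvement over WT IgG1 so higher means slower dissociation than WT.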

T9 sequence (P12314 16-288 limits assumed): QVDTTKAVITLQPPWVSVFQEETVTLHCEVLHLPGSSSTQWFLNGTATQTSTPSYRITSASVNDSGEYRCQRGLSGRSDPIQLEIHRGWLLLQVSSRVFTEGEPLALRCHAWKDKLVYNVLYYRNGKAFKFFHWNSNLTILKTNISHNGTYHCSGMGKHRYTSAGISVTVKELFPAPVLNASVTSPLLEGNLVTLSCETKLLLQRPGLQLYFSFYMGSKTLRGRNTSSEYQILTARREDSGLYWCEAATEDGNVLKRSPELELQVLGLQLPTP
T8 sequence (P08637 17-208 F176V): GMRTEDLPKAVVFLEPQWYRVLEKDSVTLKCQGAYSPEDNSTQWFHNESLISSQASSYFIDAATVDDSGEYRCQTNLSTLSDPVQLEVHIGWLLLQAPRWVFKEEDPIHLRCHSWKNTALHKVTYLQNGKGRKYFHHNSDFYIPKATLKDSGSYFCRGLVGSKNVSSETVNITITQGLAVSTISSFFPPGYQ
T10 sequence (Q8SPW2 17-208): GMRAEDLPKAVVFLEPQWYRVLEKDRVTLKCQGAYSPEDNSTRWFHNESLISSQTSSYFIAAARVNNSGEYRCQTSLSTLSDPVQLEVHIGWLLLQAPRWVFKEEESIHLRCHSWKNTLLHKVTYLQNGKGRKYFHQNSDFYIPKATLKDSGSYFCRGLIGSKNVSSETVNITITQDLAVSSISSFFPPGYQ

The first assay addresses T1, cynoFcγRIIb. Kind of assay: SPR, Kd. As for the experimental part:
(§1) Variants were screened for receptor affinity using Biacore™ technology, also referred to as Biacore herein, a surface plasmon resonance (SPR) based technology for studying biomolecular interactions in real time. SPR measurements were performed using a Biacore 3000 instrument (Biacore, Piscataway, N.J.). A protein A/G (Pierce Biotechnology) CM5 biosensor chip (Biacore) was generated using a standard primary amine coupling protocol. All measurements were performed using HBS-EP buffer (10 mM HEPES pH 7.4, 0.15 M NaCl, 3 mM EDTA, 0.005% vol/vol surfactant P20, Biacore). Antibodies at 20 nM or 50 nM in HBS-EP buffer were immobilized on the protein A/G surface and FcγRs were injected. After each cycle, the surface was regenerated by injecting glycine buffer (10 mM, pH 1.5). Data were processed by zeroing time and response before the injection of FcγR and by subtracting appropriate nonspecific signals (response of reference channel and injection of running buffer). Kinetic analyses were performed by global fitting of binding data with a 1:1 Langmuir binding model using BIAevaluation software (Biacore).
(§2) Variant antibodies were tested for their affinity to mouse or cynologous monkey FcγRs using Biacore SPR as described above. Specifically, antibodies were first immobilized on a protein A/G chip to high density, and then followed by injections of the extracellular domain of the mouse or cynologous monkey FcγR of interest. Both association and dissociation phases were tracked in real time using the Biacore technology.
Regarding B1, the binding result is given as “no binding”.

As to B2, the binding result is given as “no binding”.

Regarding B3, the binding result was “no binding”.

As to B4, the binding result was “no binding”.

The target of a further assay is T2, mFcγRIIb. The experiment in a line: SPR, Kd. On the procedure: as §1, §2
Background: Surface plasmon resonance follows binding to a sensor surface in real time, without labels.
In the case of B1, the binding result is on record as “no binding”.

Regarding B2, the binding result was “no binding”.

Take B3: the binding result is recorded as “no binding”.

Take B4: the binding result was “no binding”.

A further assay addresses T8, human FcγRIIIa (158V), His- and GST-tagged (human, UniProt P08637 17-208).
T8 construct: also called V158 FcγRIIIa; VIIIa; not shown: 6xHis and GST tags of the pTT5 vector
Kind of assay: SPR.
On to B5, for which the “Fold vs WT IgG1” value turned out to be 0.0448 fold and the Kd – broadly, the equilibrium constant for the complex coming apart – came to 4270 nM.

For B6, the “Fold vs WT IgG1” value was 3.15 fold and the dissociation constant Kd was found to be 60.8 nM.

As to B7, the “Fold vs WT IgG1” value stood at 0.00894 fold and the Kd was 21400 nM.

Another assay addresses T3, human FcγRIIa (131R), His- and …. The experiment in a line: SPR.
B1: the “Fold vs WT IgG1” value is 0.728 fold and the dissociation constant (Kd) came out at 1180 nM.

With B5, the “Fold vs WT IgG1” value came out at 30.7 fold and the Kd amounted to 28 nM.

For the molecule B6, the “Fold vs WT IgG1” value came to 41.7 fold and the Kd worked out at 20.6 nM.

As for B7, the “Fold vs WT IgG1” value stood at 29.3 fold and the Kd came to 29.3 nM.

Another assay addresses T4, human FcγRIIa (131H), His- and …. The experiment in a line: SPR.
As to B5, the “Fold vs WT IgG1” value turned out to be 10.9 fold and the affinity, expressed as Kd, was 59.2 nM.

Consider B6, for which the “Fold vs WT IgG1” value was 0.765 fold and the Kd came to 845 nM.

As to B7, the “Fold vs WT IgG1” value is 2.66 fold and the dissociation constant (Kd) amounted to 243 nM.

A further assay addresses T5, human FcγRIIb receptor protein (R&D …). The experiment in a line: SPR.
As for B1, the “Fold vs WT IgG1” value was 5.11 fold and the Kd was found to be 287 nM.

As to B5, the “Fold vs WT IgG1” value was determined as 29.2 fold and the affinity, expressed as Kd, was 50.2 nM.

In the case of B2, the binding result was “no binding”.

As to B6, the “Fold vs WT IgG1” value worked out at 40.6 fold and the Kd is 36.1 nM.

With B3, the “Fold vs WT IgG1” value came to 0.0797 fold and the Kd was 18400 nM.

For the molecule B7, the “Fold vs WT IgG1” value was found to be 30.9 fold and the Kd is 47.5 nM.

For the molecule B4, the “Fold vs WT IgG1” value was 0.0578 fold and the Kd came to 25400 nM.

The next assay has as its target T9, human FcγRI receptor protein (R&D Systems) (human, UniProt P12314 16-288).
T9 construct: also called soluble FcγRI; solFcγRI
Kind of assay: SPR.
In the case of B5, the “Fold vs WT IgG1” value worked out at 1.98 fold and the Kd worked out at 0.166 nM.

Take B6: the “Fold vs WT IgG1” value stood at 3.52 fold and the Kd is 0.0935 nM.

Consider B7, for which the “Fold vs WT IgG1” value turned out to be 2.3 fold and the Kd came to 0.143 nM.

For the next assay, the target named is T6, mFcγRIV. Kind of assay: SPR.
With B7, the “Fold vs WT IgG1 (off-rate)” value was found to be 1.04 fold.

The target in the next assay is T1, cynoFcγRIIb. The experiment in a line: SPR.
As for B7, the “Fold vs WT IgG1 (off-rate)” value was 1.03 fold.

The next assay has as its target T10, cynoFcγRIIIa (Macaca fascicularis, UniProt Q8SPW2).
T10 construct: extracellular region, C-terminal His- and GST-tag; also called cynomolgus monkey FcγRIIIa
The experiment in a line: SPR.
Regarding B7, the “Fold vs WT IgG1 (off-rate)” value was determined as 0.465 fold.

For the next assay, the target named is T2, mFcγRIIb. The experiment in a line: SPR.
Turning to B7, the “Fold vs WT IgG1 (off-rate)” value was determined as 2.8 fold.

For another assay, the target named is T7, human FcγRIIb on cells (transfected …). The experiment in a line: flow cytometry on FcγRIIb-transfected 293T cells [middle left panel]. On the procedure:
In order to validate the Biacore data and evaluate receptor binding of the variants on the cell surface, binding of select antibodies to cells expressing FcγRIIb was measured. […] HEK293T cells in DMEM with 10% FBS were transfected with human FcγRIIb cDNA in pCMV6 expression vector (Origene Technologies, Rockville, Md.), cultured for 3 days, harvested, washed twice in PBS, resuspended in PBS with 0.1% BSA (PBS/BSA), and aliquoted at 2×10^5 cells per well into 96-well microtiter plates. Fc variant antibodies were serially diluted in PBS/BSA then added to the cells and incubated with mixing for 1 h at room temperature. After extensive washing with PBS/BSA, phycoerythrin (PE)-labeled anti-human-Fab-specific goat F(ab′)2 fragment was added for detection. Cells were incubated for 30 min at room temperature, washed, and resuspended in PBS/BSA. Binding was evaluated using a FACSCanto II flow cytometer (BD Biosciences, San Jose, Calif.), and the mean fluorescence intensity (MFI) was plotted as a function of antibody concentration using Graph Pad Prism software (GraphPad Software, San Diego, Calif.) from which half-maximal binding (EC50) values were determined by sigmoidal dose response modeling.
On the technique in general: Flow cytometry measures light scatter and fluorescence of single cells or particles in a stream.
In the case of B5, the EC50 (read off the curve) (commonly the concentration needed to bring the measured effect to its halfway point) was approximately 10 ng/mL.

As for B6, the “EC50 (read off the curve)” value is approximately 10 ng/mL.

On to B7, for which the “EC50 (read off the curve)” value is approximately 10 ng/mL.

Source of the values: patent US20130315910A1 (Xencor, published 2013).
